Target: the molecule itself
Assay: cell-based or functional assay

B1: P-C24-P (other)
chain: MGSGSGSAPQMLRELQETNAALQDVRELLRQQVKEITFLKNTVMESDASGASYRDPMGAGAGAGPEGAGAGAGPEGAGAGAGPEGAGAGAGPEGAGAGAGPEGAGAGAGPEGAGAGAGPEGAGAGAGPEGAGAGAGPEGAGAGAGPEGARMPTSYRDPMGAGAGAGPEGAGAGAGPEGAGAGAGPEGAGAGAGPEGAGAGAGPEGAGAGAGPEGAGAGAGPEGAGAGAGPEGAGAGAGPEGAGAGAGPEGARMPTSYRDPMGAGAGAGPEGAGAGAGPEGAGAGAGPEGAGAGAGPEGARMPEFAPQMLRELQETNAALQDVRELLRQQVKEITFLKNTVMESDASGKLAAALEHHHHHH
**Q.** Which “half-life of P coiled-coil cross-linked hydrogel in bioerosion test at 25 C” value does the source give for B1 here?
**A.** ~2.6 h

Source: patent US20240010673A1 (ARIZONA BOARD OF REGENTS ON BEHALF OF THE UNIVERSITY OF …, published 2024)
